Measured values published in PMC9091730 (Journal of Advanced Research, 2021).
Where two headings read alike, the source gives them in different places.

Columns and labels:
[1] = biological target: GST-fusion peptide of the wild-type IQ motif of T. cinnabarinus L-VGCC (Tetranychus cinnabarinus); test: pull-down
[2] = biological target: GST-fusion peptide of the N-terminal (NT) motif of T. cinnabarinus L-type voltage-gated Ca2+ channel (Tetranychus cinnabarinus); test: pull-down
[3] = biological target: GST-fusion peptide of the near-end C-terminal motif (CT1) of T. cinnabarinus L-VGCC (Tetranychus cinnabarinus); test: pull-down
[4] = biological target: GST-fusion peptide of the PreIQ motif of T. cinnabarinus L-VGCC (Tetranychus cinnabarinus); test: pull-down
[5] = biological target: GST-fusion peptide CT1B (PreIQ and IQ) of T. cinnabarinus L-VGCC (Tetranychus cinnabarinus); test: pull-down
[6] = biological target: GST-fusion peptide of the wild-type IQ motif of T. cinnabarinus L-VGCC (Tetranychus cinnabarinus); test: pull-down; remark: listed apart in the source
[7] = biological target: L-type voltage-gated Ca2+ channel (TcL-VGCC) (Tetranychus cinnabarinus, UniProt A0A3Q9D0J7); test: voltage-clamp whole-cell current recording in Xenopus oocytes; format: cell-based

| Kd [1] [nM] | percent increase of CaM1 binding in the presence of scoparone (5.54 μM) [1] [%] | Kd [2] [nM] | Kd [3] [nM] | Kd, two-site model, first printed value [3] [nM] | Kd, two-site model, second printed value [3] [nM] | stoichiometry N [3] | Kd [4] [nM] | stoichiometry N [5] | Kd [6] [nM] | EC50 [7] [nM] | Molecule |
| --- | --- | --- | --- | --- | --- | --- | --- | --- | --- | --- | --- |
| 430 | 47.1 | 112 | 931 | 2250 | 24 | > 1 | 85 | > 1 | 230 |  | Tetranychus cinnabarinus calmodulin 1 (TcCaM1), recombinant, purified (natural protein) |
|  |  |  |  |  |  |  |  |  |  | 5540 | COc1cc2ccc(=O)oc2cc1OC [compound 1, scoparone] |
